Test results from PMC4314829, “Unraveling the kinetic diversity of microbial 3-dehydroquinate dehydratases of shikimate pathway” (AMB Express, 2015).

What was measured:
Details in all cases: DHQ 0.08 to 1.0 mmol/L; assay buffer, pH and temperature not given
[1] = system: O=C1C[C@@](O)(C(=O)O)C[C@@H](O)[C@@H]1O; experiment: purified protein
[2] = substrate: O=C1C[C@@](O)(C(=O)O)C[C@@H](O)[C@@H]1O; experiment: OD234 microplate assay, Lineweaver-Burk; type: biochemical, Crystallibacter crystallopoietes
From the text: OD234 microplate assay, Lineweaver-Burk on DHQase 3012

[3] = substrate: O=C1C[C@@](O)(C(=O)O)C[C@@H](O)[C@@H]1O; experiment: OD234 microplate assay, Lineweaver-Burk; type: biochemical, Natranaerobius thermophilus
From the text: OD234 microplate assay, Lineweaver-Burk on DHQase 3026

[4] = substrate: O=C1C[C@@](O)(C(=O)O)C[C@@H](O)[C@@H]1O; experiment: OD234 microplate assay, Lineweaver-Burk; type: biochemical, Gluconobacter oxydans
From the text: OD234 microplate assay, Lineweaver-Burk on DHQase 3007

[5] = substrate: O=C1C[C@@](O)(C(=O)O)C[C@@H](O)[C@@H]1O; experiment: OD234 microplate assay, Lineweaver-Burk; type: biochemical, Metallosphaera cuprina
From the text: OD234 microplate assay, Lineweaver-Burk on DHQase 3030

[6] = substrate: O=C1C[C@@](O)(C(=O)O)C[C@@H](O)[C@@H]1O; experiment: OD234 microplate assay, Lineweaver-Burk; type: biochemical, Nocardia brasiliensis
From the text: OD234 microplate assay, Lineweaver-Burk on DHQase 3014

[7] = substrate: O=C1C[C@@](O)(C(=O)O)C[C@@H](O)[C@@H]1O; experiment: OD234 microplate assay, Lineweaver-Burk; type: biochemical, Parageobacillus thermoglucosidasius
From the text: OD234 microplate assay, Lineweaver-Burk on DHQase 3021

[8] = substrate: O=C1C[C@@](O)(C(=O)O)C[C@@H](O)[C@@H]1O; experiment: OD234 microplate assay, Lineweaver-Burk; type: biochemical, Acetivibrio clariflavus
From the text: OD234 microplate assay, Lineweaver-Burk on DHQase 3025

[9] = substrate: O=C1C[C@@](O)(C(=O)O)C[C@@H](O)[C@@H]1O; experiment: OD234 microplate assay, Lineweaver-Burk; type: biochemical, Ruminococcus champanellensis
From the text: OD234 microplate assay, Lineweaver-Burk on DHQase 3027

[10] = substrate: O=C1C[C@@](O)(C(=O)O)C[C@@H](O)[C@@H]1O; experiment: OD234 microplate assay, Lineweaver-Burk; type: biochemical, Thermodesulfobium narugense
From the text: OD234 microplate assay, Lineweaver-Burk on DHQase 3028

[11] = substrate: O=C1C[C@@](O)(C(=O)O)C[C@@H](O)[C@@H]1O; experiment: OD234 microplate assay, Lineweaver-Burk; type: biochemical, Streptomyces acidiscabies
From the text: OD234 microplate assay, Lineweaver-Burk on DHQase 3016

[12] = substrate: O=C1C[C@@](O)(C(=O)O)C[C@@H](O)[C@@H]1O; experiment: OD234 microplate assay, Lineweaver-Burk; type: biochemical, Psychromonas ingrahamii
From the text: OD234 microplate assay, Lineweaver-Burk on DHQase 3010

[13] = substrate: O=C1C[C@@](O)(C(=O)O)C[C@@H](O)[C@@H]1O; experiment: OD234 microplate assay, Lineweaver-Burk; type: biochemical, Alcanivorax borkumensis
From the text: OD234 microplate assay, Lineweaver-Burk on DHQase 3003

[14] = substrate: O=C1C[C@@](O)(C(=O)O)C[C@@H](O)[C@@H]1O; experiment: OD234 microplate assay, Lineweaver-Burk; type: biochemical, Paramagnetospirillum magneticum
From the text: OD234 microplate assay, Lineweaver-Burk on DHQase 3037

[15] = substrate: O=C1C[C@@](O)(C(=O)O)C[C@@H](O)[C@@H]1O; experiment: OD234 microplate assay, Lineweaver-Burk; type: biochemical, Halanaerobium hydrogeniformans
From the text: OD234 microplate assay, Lineweaver-Burk on DHQase 3024

DHQase 3009 (Psychrobacter sp. PRwf-1)
Km [1]: 203.24 µM
Vmax [1]: 254 µM/min
kcat [1]: 31.7 s⁻¹
kcat/Km [1]: 160000 M⁻¹ s⁻¹

B1: DHQase 3012 (Arthrobacter crystallopoietes BAB-32) (protein)
chain: MGNMSEHSTGSSTRKLLVLNGPNLNLLGTREPQIYGSDTLEDAETLAARAAEAHGLAVECLQSNHEGVLIDAIHAARGTAAGIVINPGGYTHTSVALRDALSGVDLPVVEVHISNIHRREEFRHHSYISGIAVAVIAGAGISGYKFAVDLLASRL
notes: full length, codon-optimised synthetic gene, pET28a His tag, E. coli BL21(DE3), Ni-NTA
Km [2]: 448.50 µM
Vmax [2]: 4000 µM/min
kcat [2]: 185 s⁻¹
kcat/Km [2]: 410000 M⁻¹ s⁻¹

B2: DHQase 3026 (Natranaerobius thermophilus JW/NM-WN-LF) (protein)
chain: MKIYVIHGPNINMLGNRESEHYGTQTLEELNSSIIKESESLGIEVEIFQFNSEGDIITKLQEANNYAQGVIINPGAYTHYSIAIRDAIAAISKPVIEVHISNIFNRESFRSHSVIAPVAKGQISGMGFAGYLLALNAFIKTKEG
notes: as for B1
Km [3]: 304.54 µM
Vmax [3]: 177 µM/min
kcat [3]: 3.8 s⁻¹
kcat/Km [3]: 10000 M⁻¹ s⁻¹

B3: DHQase 3007 (Gluconobacter oxydans 621H) (protein)
chain: MTAPKVLSRGQMKRPLITVLNGPNLNMLGLRQPGIYGHATLDDVEQVCIQAAERLDVAIDFRQTNGEGELVSWVQECRGRADGIVINPAAYGHTSIALLDALLAVELPVIEVHISNIHRREPFRHHTYVSQAAIGVICGLGVRGYAHALQAITDMIEDEG
notes: as for B1
Km [4]: 777.75 µM
Vmax [4]: 146 µM/min
kcat [4]: 77.1 s⁻¹
kcat/Km [4]: 100000 M⁻¹ s⁻¹

B4: DHQase 3030 (Metallosphaera cuprina Ar-4) (protein)
chain: MFSLMKPEIVVSLPVTRPDDLNKVNKIDGLVELRLDYSTELPNPEELIPFKHKVLVTLRDKEEGGRIKYDVDFKAKYLERLNELGILYDVEASFLERRKIEYVGKIVSAHYFSSLPSTEEIDQLFRKYEGAYTIKVAVASLPGYRELLSYVSGKPNATFMPMSNDPIERLAFSLLGSKLLYTYLESPTAQGQLSYTQAKQILECIFK
notes: as for B1
Km [5]: 92.76 µM
Vmax [5]: 68.4 µM/min
kcat [5]: 3.86 s⁻¹
kcat/Km [5]: 40000 M⁻¹ s⁻¹

B5: DHQase 3014 (Nocardia brasiliensis ATCC 700358) (protein)
chain: MSAPGPILVLNGPNLNMLGTRQPEVYGSATLDDVVELCRQTAERYGREIAAFQSNSEGALIDRIHRARGVESAIVINPGGLTHTSVALRDALVIPEVPIVEVHISNVHAREEFRHHSYISPIATAVVAGMGIQGYAAAIEFLVRSA
notes: as for B1
Km [6]: 151.51 µM
Vmax [6]: 216 µM/min
kcat [6]: 3.83 s⁻¹
kcat/Km [6]: 30000 M⁻¹ s⁻¹

B6: DHQase 3021 (Parageobacillus thermoglucosidasius) (protein)
chain: MAHLLLINGPNLNLLGKREPHIYGSTTLDSLEQELISFANEHGAALTCFQSNHEGAIIDRIHEAEGKYDGIILNAGAFTHYSYAIRDAIASISIPVVEVHISNIHAREPFRHQSVIAPVVAGQIVGFGLAGYRLAILALLEIKGRGDK
notes: as for B1
Km [7]: 133.97 µM
Vmax [7]: 130 µM/min
kcat [7]: 5.33 s⁻¹
kcat/Km [7]: 40000 M⁻¹ s⁻¹

B7: DHQase 3025 (Acetivibrio clariflavus DSM 19732) (protein)
chain: MKKILIINGPNLNLLGTREKEVYGTETLDDIAKKVAEEAAKLNVNIEFFQSNHEGDIIDKIHAARGNTDAIIINPGAYTHYSIAIRDAIKAVEIPTIEIHLSNIHAREEFRSHSVIAPVCVGQICGFGSNSYILGLNAAALL
notes: as for B1
Km [8]: 368.46 µM
Vmax [8]: 353 µM/min
kcat [8]: 59.6 s⁻¹
kcat/Km [8]: 160000 M⁻¹ s⁻¹

B8: DHQase 3027 (Ruminococcus champanellensis 18P13 = JCM 17042) (protein)
chain: MRILVIHGPNLNLLGEREPGIYGKNDLAHVNGAILTRAKELGVECEVFQSNHEGEILVRLHEARHAFDGVVLNAGAYTHYSYAIRDAIAAIRIPCVEVHISNVHAREEFRHTSVIAPACLGVVCGFGGDSYLLALEGLVRHCAGQKTL
notes: as for B1
Km [9]: 255.54 µM
Vmax [9]: 360 µM/min
kcat [9]: 50.2 s⁻¹
kcat/Km [9]: 200000 M⁻¹ s⁻¹

B9: DHQase 3028 (Thermodesulfobium narugense DSM 14796) (protein)
chain: MKKILVINGPNLNMLGTREPNIYGSITLHGLEELILNFAKELEMKVDFFQSNHEGDIIDKIHRTFDAYDAFIINPGAFTHYSYAIRDAIASITIPVIEVHLSNVHAREEFRKSSVIAPVCLGQISGLGELSYIAAIVALDKYLQKLEKRA
notes: as for B1
Km [10]: 180.72 µM
Vmax [10]: 69.6 µM/min
kcat [10]: 6.88 s⁻¹
kcat/Km [10]: 40000 M⁻¹ s⁻¹

B10: DHQase 3016 (Streptomyces acidiscabies) (protein)
chain: MPRTLANAPIMILNGPNLNLLGQRQPEIYGSDTLADVEALCVKAAATHGGTVDFRQSNHEGELVDWIHEARMDHCGIVINPGAYSHTSVAILDALNTCDGLPVIEVHISNIHKREAFRHHSYVSLRADGVIAGCGVQGYVFGVERVAALAGEGTARA
notes: as for B1
Km [11]: 141.53 µM
Vmax [11]: 745 µM/min
kcat [11]: 212 s⁻¹
kcat/Km [11]: 1.5e+06 M⁻¹ s⁻¹

B11: DHQase 3010 (Psychromonas ingrahamii 37) (protein)
chain: MTQQIKLLVLNGPNLNLLGQREPEVYGSKTLDDIIKALTDEAALQNVALSHLQSNREYELIEKIHDAFEKIDFIIINPAAFTHTSVALRDALLGVNIPFIEVHLSNVHARESFRHHSYLSDIAQGVICGLGAKGYSFALQSAIGKLRNI
notes: as for B1
Km [12]: 202.55 µM
Vmax [12]: 48 µM/min
kcat [12]: 10.6 s⁻¹
kcat/Km [12]: 50000 M⁻¹ s⁻¹

B12: DHQase 3003 (Alcanivorax borkumensis SK2) (protein)
chain: MITANNDKFARGPILASILVLHGPNLNLLGTREPDKYGHTTLADINQQLQEQASKAGHHLQHLQSNAEYELVECIHDAHTEGVDFIIINPAAFTHTSVALRDALLAVNIPFIEVHLSNVHARETFRHHSFFSDIAKGVICGLGAIGYALALTAALEQLDD
notes: as for B1
Km [13]: 210.71 µM
Vmax [13]: 80.4 µM/min
kcat [13]: 13.5 s⁻¹
kcat/Km [13]: 60000 M⁻¹ s⁻¹

B13: DHQase 3037 (Paramagnetospirillum magneticum AMB-1) (protein)
chain: MLGTRQPELYGTETLADIEAACRTHADSLGLTVEFSQTNMEGELVTSIQKCRGRAVGIIINAGAYTHTSVAILDALLAAEVPAIEVHLSNIHQRDSFRHHSYVAKAAKGMICGLGSHGYILALDALARLIKGNAEA
notes: as for B1
Km [14]: 119.97 µM
Vmax [14]: 232 µM/min
kcat [14]: 73.2 s⁻¹
kcat/Km [14]: 610000 M⁻¹ s⁻¹

B14: DHQase 3024 (Halanaerobium hydrogeniformans) (protein)
chain: MQKVAVIHGPNLNMLGLREPEIYGKNNLEMVNKNLKRKAKELDFEIEIMQSNHEGEIVDYLHQNFEQLDGVIINPGGLTHTSVILRDALAAVRLPVIEVHISNIHKREEFRHKSLTAAVAVGQITGLGVKGYTLALEGLKSILGREKY
notes: as for B1
Km [15]: 526.07 µM
Vmax [15]: 374 µM/min
kcat [15]: 75.1 s⁻¹
kcat/Km [15]: 140000 M⁻¹ s⁻¹
